Legend:
collagen = test: Collagen-modifying activity with FITC-gelatin or FITC-cadaverine; format: biochemical; conditions: 16 hours, pH 7.4
Protocol: Substrate specificity for collagen of Tgase variant A3 (SEQ ID NO: 4) was tested by allowing the variant to react with either fluorescein-labeled gelatin (FITC-Gelatin, to test protein-protein cross-linking) or fluorescein-labeled cadaverine (FITC-cadaverine, to test protein-small molecule cross-linking) with a collagen layer deposited on the bottom of a 96-well microtiter plate. Tgase variant A3 (SEQ ID NO: 4) and wild-type Tgase were diluted to 4-800 ppm in 50 mM phosphate buffer, pH 7.4, supplemented with 100 mM NaCl in 96-well collagen coated microtiter plates. Either FITC-gelatin or FITC-cadaverine was added to 1 g/L (final volume 100 μL) and the plates were sealed and incubated at either 37° C. or 50° C. for 16 hours. The reaction supernatants were carefully removed and then 200 μL 50 mM [COMPOUND LEFT OUT] mM NaCl, pH 7.4 buffer was added gently against the side of each well then carefully removed. This wash step was repeated. The plate-bound material was extracted by vigorously pipetting 100 μL dimethylsulfoxide into each well, then the extract was transferred into a black bottom 96-well plate. The fluorescence of the samples was measured at an excitation wavelength of 487 nm and an emission wavelength of 528 nm. The fluorescence signal is assumed to be proportionate to the concentration of fluorescent product extracted from the surface of the plate. For both FITC-gelatin and FITC-cadaverine, the fluorescence response per concentration enzyme was higher for wells treated with Tgase variant A3 (SEQ ID NO: 4) than for wells treated with wild-type Tgase (Table 11).

C. albicans (ATCC 10231) = test: MIC determination against C. albicans; format: cell-based
Protocol: (§1) E. coli (ATCC 8739) and C. albicans (ATCC 10231) were acquired from the American Type Culture Collection (ATCC) (Manassas, VA) and maintained as −80° C. frozen glycerol stocks.
(§2) For MIC determination of yeast cultures, C. albicans (ATCC 10231) was grown overnight (24 hours) in Sabouraud Dextrose broth at 30° C. The following day, the cell density of the saturated cultures was calculated using OD600 and cultures were diluted to 104 to 10^6 CFU/mL in sterile Sabouraud Dextrose broth media to generate the inoculum, and 100 μL of the inoculum was combined with 100 μL of serially diluted Tgase variant at a range of 0.0001-0.05 weight percent. The cultures were grown overnight at 30° C. and growth curves were measured by OD600 on a BioTek® Synergy Plate Reader. All test conditions were performed in triplicate. MIC was determined to be […] (0.005% w/v) against C. albicans for the enzyme described in SEQ ID NO: 4 using OD600.

[1] = Thermal stability at 55 °C, specific activity by colorimetric hydroxamate assay; format: biochemical
Protocol: Tgase activity was measured herein using a colorimetric hydroxamate activity assay (Folk and Cole (1965) J Biol Chemistry 240 (7): 2951-2960). Briefly, the hydroxamate assay uses N-benzyloxycarbonyl-L-glutaminyl-glycine (ZQG) as a low molecular weight amine acceptor substrate and hydroxylamine as an amine donor. In the presence of catalytically active Tgase, the hydroxylamine is incorporated to form Z-glutamylhydroxamate-glycine, which develops a colored complex with iron (III), detectable at 525 nm after incubation at 37° C. for 5-200 minutes. The calibration was performed using L-glutamic acid gamma-monohydroxamate (Millipore® Sigma®) as a standard. One unit of Tgase was defined as the amount of enzyme that catalyzes formation of 1 μmol of the peptide derivative of gamma-glutamylhydroxylamine per minute. Activity of Tgase variants is depicted in Tables 2-4.
A commercially available wild-type Tgase (Ajinimoto®, Activa® TI formulation) formulated at 0.75-1.0% enzyme in maltodextrin was purchased from Amazon.com and dissolved in water at 20% w/v. The concentration of the mature Tgase in the solution was confirmed by high-performance liquid chromatography (HPLC) and the sample was further diluted to 0.1 g/L of enzyme. Following dilution, the enzyme was subjected to the hydroxamate assay as described in Example 4 to determine specific activity. The specific activity of the commercial wild-type Tgase compared to Tgase variant A3 (SEQ ID NO: 4), further comprising an N-terminal methionine, is shown in FIG. 1.
The thermal stability of Tgase variant A3 (SEQ ID NO: 4) compared to the commercial wild-type Tgase was evaluated by incubating the samples at 55° C. and testing the enzyme concentration and activity at various timepoints. Six timepoints were tested: 0, 30, 60, 120, 240, and 480 minutes.
The enzyme concentration was measured by HPLC. The samples were diluted 10-fold in 50 mM phosphate pH 7.4, 100 mM NaCl. The samples were tested by reverse phase using a Zorbax SB300-C8 column with 0.1% trifluoroacetic acid in water (MPA) and 0.08% trifluoroacetic acid in acetonitrile (MPB).
The activity was determined using the colorimetric activity assay described in Example 4A. The specific activity (U/mg) of the samples was calculated using the concentration of each sample as determined per Example 4D (results shown in Table 10).

E. coli (ATCC 8739) = test: MIC determination against E. coli; format: cell-based
Protocol: as §1
(§3) The following day, the cell density of the saturated cultures was calculated using OD600 and cultures were diluted to 104 to 10^6 CFU/mL in sterile Mueller Hinton broth to generate the inoculum, and 100 μL of the inoculum was combined with 100 μL of serially diluted Tgase variant A3 (SEQ ID NO: 4) at a range of 0.0001-0.05 weight percent. Growth curves were measured by OD600 on a BioTek® Synergy Plate Reader. All test conditions were performed in triplicate. MIC was determined to be […] (0.005% w/v) against E. coli for the enzyme described in SEQ ID NO: 4 using OD600.

[2] = system: E. coli (ATCC 8739) / C. albicans (ATCC 10231); test: MIC of permeabilizer co-dosants with and without Tgase variant; format: cell-based
Protocol: as §1, §3, §2
Aseptilase activities of Tgase variant A3 (SEQ ID NO: 4) in combination with each of the three permeabilizer co-dosants, polymyxin B, chlorhexidine, and a 10000:4000:1 mixture by weight of sodium hexametaphosphate, phytic acid and chlorhexidine, were tested. […] The experiments were performed as described in Example 5. The co-dosants were added into Tgase variant A3 (SEQ ID NO: 4) solutions at concentrations of 0.125 g/L, 0.05 g/L, and 350 mM, respectively. The results are shown in Table 12 with Tgase concentrations reported within the table at the best MIC.

[3] = OD600, printed in brackets after the ppm value

B1: A3: Tgase variant S2P Q50S Q74A K91H Q124L K151R K152R N282M G283A relative to SEQ ID NO: 2 (protein, UniProt P81453 77-407, looked up, variant S2P Q50S Q74A K91H Q124L K151R K152R N282M G283A)
Protein-glutamine …: DPDDRVTPPAEPLDRMPDPYRPSYGRAETVVNNYIRKWQQVYSHRDGRKSQMTEEQREWLSYGCVGVTWVNSGAYPTNRLAFASFDEDRFHNELKNGRPRSGETRAEFEGRVAKESFDEEKGFLRAREVASVMNRALENAHDESAYLDNLRRELANGNDALRNEDARSPFYSALRNTPSFKERNGGNHDPSRMKAVIYSKHFWSGQDRSSSADKRKYGDPDAFRPAPGTGLVDMSRDRNIPRSPTSPGEGFVNFDYGWFGAQTEADADKTVWTHGNHYHAPMASLGAMHVYESKFRNWSEGYSDFDRGAYVITFIPKSWNTAPDKVKQGWP
In the case of B1, the “Fluorescence/[Enzyme]” value (collagen; FITC-Cadaverine, 37 °C) is reported as 20.3 RFU/ppm, the “Fluorescence/[Enzyme]” value (collagen; FITC-Cadaverine, 50 °C) is reported as 182.2 RFU/ppm and the “Fluorescence/[Enzyme]” value (collagen; FITC-Gelatin, 37 °C) is reported as 8.4 RFU/ppm. The “Fluorescence/[Enzyme]” value (collagen; FITC-Gelatin, 50 °C) was 36.9 RFU/ppm, the MIC (C. albicans (ATCC 10231); OD600) was 100 ppm and the MIC (C. albicans (ATCC 10231); [3]) was 0.005 % w/v. The Specific activity ([1]; timepoint 0 min) was 46.0 U/mg, the Specific activity ([1]; timepoint 30 min) was 44.4 U/mg and the Specific activity ([1]; timepoint 60 min) was 43.3 U/mg. It also gave a Specific activity ([1]; timepoint 120 min) of 40.5 U/mg, a Specific activity ([1]; timepoint 240 min) of 38.9 U/mg and a Specific activity ([1]; timepoint 480 min) of 32.1 U/mg. The “portion remaining soluble during the heat treatment” value ([1]; up to 480 min, compared to wild-type Tgase, HPLC) was “greater portion”, the MIC (E. coli (ATCC 8739); OD600) was 200 ppm and the MIC (E. coli (ATCC 8739); [3]) was 0.005 % w/v. For the same molecule, the “Aseptilase activity in combination with permeabilizers” value ([2]; co-dosed with polymyxin B, chlorhexidine, or hexametaphosphate/phytic acid/chlorhexidine) was “further improved by co-dosing with cell membrane permeabilizers”, the “concentration of Tgase at the best MIC” value ([2]; in combination with 10000:4000:1 hexametaphosphate, phytic acid and chlorhexidine) was 200 ppm and the “concentration of Tgase at the best MIC” value ([2]; in combination with Chlorhexidine) was 200 ppm. The “concentration of Tgase at the best MIC” value ([2]; in combination with Polymyxin B) was 12.5 ppm.
